Experiments:
[1] = target: human chemokine receptor 5 (CCR5) (human) (UniProt P51681); test: cell-based or functional assay
murine CCR5 (murine) = murine CCR5 (murine) (UniProt P51682); test: cell-based or functional assay
Sequence of UniProt P51682 (P51682 whole entry): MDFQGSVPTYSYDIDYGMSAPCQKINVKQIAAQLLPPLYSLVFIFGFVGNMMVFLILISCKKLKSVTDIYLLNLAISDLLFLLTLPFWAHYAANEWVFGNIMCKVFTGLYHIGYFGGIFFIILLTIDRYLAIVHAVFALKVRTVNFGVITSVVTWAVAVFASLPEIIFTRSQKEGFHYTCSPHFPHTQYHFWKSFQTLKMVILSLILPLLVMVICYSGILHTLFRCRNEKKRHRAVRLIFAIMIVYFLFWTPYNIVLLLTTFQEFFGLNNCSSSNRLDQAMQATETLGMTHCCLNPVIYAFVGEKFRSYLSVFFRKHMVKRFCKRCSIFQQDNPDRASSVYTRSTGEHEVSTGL

## chemokine-toxin fusion protein RANTES-PE38
[1]
  cytotoxicity on CCR5 positive CHO cells (48 h): concentration of complete destruction: 2 nM
  cytotoxicity on CHO cells expressing human CCR5 (40 h): concentration of complete killing: 10 nM
Murine CCR5 (murine)
  cytotoxicity on CHO cells expressing murine CCR5 (40 h, light microscopy): 10 nM

Source: WO2002020615A2
